These are literature values, as cited in article PMC7130864.

The target of this data set is Kv1.3 (Homo sapiens) (UniProt P22001).
UniProt P22001, sequence (P22001 whole entry): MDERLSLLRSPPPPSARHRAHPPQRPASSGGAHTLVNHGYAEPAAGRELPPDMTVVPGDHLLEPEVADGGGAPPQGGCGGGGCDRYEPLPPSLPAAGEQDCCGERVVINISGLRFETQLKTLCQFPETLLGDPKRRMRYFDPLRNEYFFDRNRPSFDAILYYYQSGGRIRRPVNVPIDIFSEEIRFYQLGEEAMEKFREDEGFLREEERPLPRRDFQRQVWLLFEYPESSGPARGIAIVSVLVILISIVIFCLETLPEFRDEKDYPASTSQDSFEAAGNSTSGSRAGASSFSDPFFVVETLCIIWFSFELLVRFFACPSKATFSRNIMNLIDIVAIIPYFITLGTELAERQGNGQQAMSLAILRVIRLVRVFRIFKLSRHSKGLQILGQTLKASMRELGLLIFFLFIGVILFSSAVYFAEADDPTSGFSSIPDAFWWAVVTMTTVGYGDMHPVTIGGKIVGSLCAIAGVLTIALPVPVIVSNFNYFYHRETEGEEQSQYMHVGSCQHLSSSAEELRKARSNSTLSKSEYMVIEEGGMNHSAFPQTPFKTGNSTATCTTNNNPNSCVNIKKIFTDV

Take BmKTX (from UniProt Q9NII7): the dissociation constant Kd (commonly the equilibrium constant for the complex coming apart) is 200 pM.
